Several values for one entry are separate records, joined by “and”; a condition that tells them apart may be missing. Identical values can stand only once.
Key:
[1] = target: T1, cloned soluble GalNAc-transferase (GalNAcTs) (Bos taurus, UniProt Q07537); experiment: Kinetic parameters with the cloned soluble GalNAc-transferase (Bond Elut assay); type: biochemical, bovine; conditions: read-out: Km for UDP-GalNAc
T1 construct: The plasmid pAC373-GalNAcT (Homa et al., 1993) which contains the full length GalNAc-transferase gene; honeybee melittin signal peptide (21 aa) (N, cleaved yes); made in house; host or cells: Sf9 cells / baculovirus, purified from serum-free culture medium on apomucin-Sepharose
T1 sequence (Q07537 48-559 limits assumed): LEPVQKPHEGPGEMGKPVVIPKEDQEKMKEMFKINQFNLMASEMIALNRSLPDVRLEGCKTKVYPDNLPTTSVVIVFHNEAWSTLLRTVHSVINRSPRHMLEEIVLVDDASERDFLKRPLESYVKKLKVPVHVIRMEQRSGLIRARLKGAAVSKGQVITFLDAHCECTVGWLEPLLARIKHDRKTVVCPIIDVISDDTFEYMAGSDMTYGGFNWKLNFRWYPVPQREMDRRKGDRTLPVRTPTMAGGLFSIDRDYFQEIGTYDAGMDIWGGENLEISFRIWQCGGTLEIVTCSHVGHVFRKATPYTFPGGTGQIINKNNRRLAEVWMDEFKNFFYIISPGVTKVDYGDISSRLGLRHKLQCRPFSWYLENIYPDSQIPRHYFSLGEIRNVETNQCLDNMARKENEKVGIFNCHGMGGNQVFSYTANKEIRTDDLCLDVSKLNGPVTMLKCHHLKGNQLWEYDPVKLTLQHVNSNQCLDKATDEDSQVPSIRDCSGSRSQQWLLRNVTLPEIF

[2] = test system: GalNAc-transferase purified from porcine submaxillary glands; conditions: Wang et al., 1992; read-out: Km for UDP-GalNAc; cited from earlier work
[3] = target: T2, bovine colostrum GalNAc-transferase (Bos taurus, UniProt Q07537); parameters: host or cells: bovine colostrum; conditions: Elhammer and Kornfeld, 1986; read-out: Km for UDP-GalNAc; cited from earlier work
T2 sequence (Q07537 41-559 limits assumed): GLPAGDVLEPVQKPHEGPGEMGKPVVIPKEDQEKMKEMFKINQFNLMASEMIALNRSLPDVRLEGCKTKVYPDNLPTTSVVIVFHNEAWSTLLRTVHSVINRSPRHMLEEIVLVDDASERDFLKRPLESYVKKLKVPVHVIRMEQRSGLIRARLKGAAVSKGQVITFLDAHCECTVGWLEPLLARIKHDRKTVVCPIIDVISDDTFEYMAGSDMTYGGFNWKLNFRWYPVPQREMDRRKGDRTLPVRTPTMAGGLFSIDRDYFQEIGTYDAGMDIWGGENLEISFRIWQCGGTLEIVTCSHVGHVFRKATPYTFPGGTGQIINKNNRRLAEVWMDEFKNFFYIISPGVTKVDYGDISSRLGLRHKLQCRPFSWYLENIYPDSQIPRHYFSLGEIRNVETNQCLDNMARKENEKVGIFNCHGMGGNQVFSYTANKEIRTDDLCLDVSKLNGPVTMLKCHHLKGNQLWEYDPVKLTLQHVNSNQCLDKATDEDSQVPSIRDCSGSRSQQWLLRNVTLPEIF

[4] = target: T2, bovine colostrum GalNAc-transferase; experiment: Transfer of N-acetylgalactosamine to protein acceptors; type: biochemical; parameters: from tissue; host or cells: bovine colostrum; conditions: for acceptor activity (in words): native or reduced and carboxymethylated state
Experimental: The above conclusions and the predictions of the specificity algorithm are validated experimentally by studying the ability of bovine colostrum GalNAc-transferase to transfer N-acetylgalactosamine to a variety of acceptors, both native proteins and synthetic acceptor peptides. The transfer of N-acetylgalactosamine to protein acceptors is assayed as described by Elhammer and Kornfeld, 1986, with minor modifications. The concentration of UDP-GalNAc is saturating in all assays; a Km of 8 μM is reported for bovine colostrum GalNAc-transferase (Elhammer and Kornfeld, 1986).
The transfer of N-acetylgalactosamine to protein acceptors was assayed
under standard conditions (see Material and Methods). The acceptor
concentration was 65 μM, the enzyme concentration approximately 65
mU/ml and assay time was 60 minutes. The transfer to both native and
reduced-carboxymethylated acceptors was assayed.

## CC(=O)N[C@H]1[C@@H](OP(=O)(O)OP(=O)(O)OC[C@H]2O[C@@H](n3ccc(=O)[nH]c3=O)[C@H](O)[C@@H]2O)O[C@H](CO)[C@H](O)[C@@H]1O [UDP-GalNAc, UDP-N-acetylgalactosamine]
[1]
  Km: ~1700 nM and 1700 nM
[2]
  Km: 6 µM
[3]
  Km: 8 µM

## Bovine cytochrome C: protein with one Ser and eight Thr residues but no predicted potential sites
[4]; native acceptor 65 μM, enzyme approx. 65 mU/ml, 60 minutes
  Product formed, Native: < 0.1 nmol/min/mg
[4]; listed as bovine cytochrome C
  acceptor activity (in words): not an acceptor
[4]; listed as cytochrome C
  acceptor activity (in words): completely inactive as an acceptor
[4]; reduced and carboxymethylated acceptor 65 μM, enzyme approx. 65 mU/ml, 60 minutes
  Product formed, Reduced and carboxymethylated: < 0.1 nmol/min/mg

— US5910570A, “Cloned DNA encoding a UDP-GalNAc: polypeptide N-acetylgalactosaminy-ltransferase” (Pharmacia & Upjohn Company, priority 1997, dated 1999)
